Data from patent publication US20180334496A1.

Biological target: Recombinant His-tagged FcγRIIb (UniProt P31994)
Assay: ELISA, antibody coated at 2 uM, His-tagged FcγRIIb titrated 1:3 from 2 uM, HRP anti-His; the concentration is that of the receptor

Sequence of Recombinant His-tagged FcγRIIb (P31994 46-217 limits assumed): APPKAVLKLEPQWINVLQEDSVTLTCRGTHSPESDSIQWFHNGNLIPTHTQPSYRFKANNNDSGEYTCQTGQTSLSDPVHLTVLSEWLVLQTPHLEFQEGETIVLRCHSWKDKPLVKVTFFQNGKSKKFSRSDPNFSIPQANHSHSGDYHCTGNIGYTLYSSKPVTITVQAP

With Avastin (antibody) the EC50 (read off the curve) was 70 nM.
